# T1: GPNMB (CG56972) as expressed by human cell lines (human, UniProt Q14956 23-492)
# T1 construct: Endogenous or transfected full-length protein on cells (FACS, killing assays) or in cell lysates (immunoprecipitation, blot); also called native GPNMB protein
# T1 sequence: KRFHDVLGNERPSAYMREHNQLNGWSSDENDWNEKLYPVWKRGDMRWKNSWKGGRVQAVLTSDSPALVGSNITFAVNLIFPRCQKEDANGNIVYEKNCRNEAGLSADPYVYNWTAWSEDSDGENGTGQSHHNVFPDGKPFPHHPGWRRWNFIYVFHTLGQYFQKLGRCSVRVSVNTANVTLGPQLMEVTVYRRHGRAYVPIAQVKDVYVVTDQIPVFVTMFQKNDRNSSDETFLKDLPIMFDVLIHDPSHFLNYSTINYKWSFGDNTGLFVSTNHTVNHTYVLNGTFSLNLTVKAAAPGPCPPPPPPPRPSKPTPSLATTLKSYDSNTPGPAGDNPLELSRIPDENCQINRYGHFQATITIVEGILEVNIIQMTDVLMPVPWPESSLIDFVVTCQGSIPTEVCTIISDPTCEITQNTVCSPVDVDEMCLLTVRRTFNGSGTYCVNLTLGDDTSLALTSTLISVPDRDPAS
# B1: CR011 mAb 1.15.1 (IgG2) (antibody)
# heavy: QVQLQESGPGLVKPSQTLSLTCTVSGGSISSFNYYWSWIRHHPGKGLEWIGYIYYSGSTYSNPSLKSRVTISVDTSKNQFSLTLSSVTAADTAVYYCARGYNWNYFDYWGQGTLVTVSSASTKGPSVFPLAPCSRSTSESTAALGCLVKDYFPEPVTVSWNSGALTSGVHTFPAVLQSSGLYSLSSVVTVPSSNFGTQTYTCNVDHKPSNTKVDKTVERKCCVECPPCPAPPVAGPSVFLFPPKPKDTLMISRTPEVTCVVVDVSHEDPEVQFNWYVDGVEVHNAKTKPREEQFNSTFRVVSVLTVVHQDWLNGKEYKCKVSNKGLPAPIEKTISKTKGQPREPQVYTLPPSREEMTKNQVSLTCLVKGFYPSDIAVEWESNGQPENNYKTTPPMLDSDGSFFLYSKLTVDKSRWQQGNVFSCSVMHEALHNHYTQKSLSLSPGK
# VL: not shown
# notes: also called CR011.1.15.1; CR011 IgG2
# What was measured:
# [1] = molecular target: T1, GPNMB (CG56972) as expressed by human …; assay: FACS on UACC-62 cells, antibody 1 ug/mL
# Description: The specificity of anti-GPNMB antibodies to cell membrane-bound GPNMB protein expressed by melanoma cancer cell line, UACC-62 was analyzed by FACS analysis. […] Cells were washed twice with PBS (Ca and Mg free), incubated with Versene at 37° C. until cells detached, counted and aliquoted at 1 million cells per assay tube. Cells were then washed twice and resuspended in ice-cold FACS buffer (0.01 M HEPES, 0.15M NaCl, 0.1% NaN₃ and 4% FBS). Primary antibody at 1 μg/mL was added to the cells. Cells were incubated on ice for 30 min, washed 2-3 times and resuspended in 1 mL of ice-cold FACS buffer. R-PE-conjugated goat anti-human antibody (Jackson ImmunoResearch Laboratory) at 1:100 dilution was added and cells were incubated on ice for 30 min. After washing 3 times with 1 mL of ice-cold FACS buffer, cells were fixed with 0.5-1 mL of 1% formaldehyde in PBS and analyzed by flow cytometry.
# [2] = molecular target: T1, GPNMB (CG56972) as expressed by human …; assay: FACS on SK-N-SH cells, CR011 10 ug/mL
# Description: (§1) Quantitative analysis of CG56972 expression on the surface of cell lines was determined by flow cytometry (FACS). […] Cells were fixed in 1% paraformaldehyde/PBS and examined on a Becton Dickinson FACSCalibur flow cytometer. Data analysis was performed with Becton Dickinson Cell Quest software version 3.3 and the geometric mean fluorescence intensity ratio (GMR) was determined for each cell type.
# [3] = molecular target: T1, GPNMB (CG56972) as expressed by human …; assay: FACS on HUT-102 cells, antibody 1 ug/mL
# [4] = molecular target: T1, GPNMB (CG56972) as expressed by human …; assay: FACS on HH cells, antibody 1 ug/mL
# [5] = molecular target: T1, GPNMB (CG56972) as expressed by human …; assay: FACS on UACC-62 cells
# [6] = molecular target: T1, GPNMB (CG56972) as expressed by human …; assay: FACS on SW 1783 cells, CR011 10 ug/mL
# Description: as §1
# [7] = molecular target: T1, GPNMB (CG56972) as expressed by human …; assay: FACS on SU-DHL-4 cells, antibody 1 ug/mL
# [8] = molecular target: T1, GPNMB (CG56972) as expressed by human …; assay: FACS on SUP-M2 cells, antibody 1 ug/mL
# Description: Lymphoma or leukemia derived cells were washed twice with ice-cold FACS buffer and resuspended at 1 million cells per assay tube. […] Cells were then washed 2-3 times and resuspended in 1 mL of ice-cold FACS buffer. R-PE-conjugated goat anti-human antibody at 1:100 dilution was added and cells were incubated on ice for 30 min. Cells were washed 3 times with 1 mL of ice-cold FACS buffer, fixed with 0.5-1 mL of 1% formaldehyde in PBS and analyzed by Flow Cytometry.
# [9] = molecular target: T1, GPNMB (CG56972) as expressed by human …; assay: FACS on MEWO cells
binder,measurement,setting,value
B1,Geo Mean Ratio (relative to pK16),[1],7.89 ratio
same,CR011 Fold Shift (GMR),[2],2 fold
same,Geo Mean Ratio,[3],1 ratio
same,Geo Mean Ratio,[4],1 ratio
same,Geo Mean Ratio (relative to isotype),[5],5.5 ratio
same,CR011 Fold Shift (GMR),[6],1.1 fold
same,Geo Mean Ratio,[7],1.8 ratio
same,Geo Mean Ratio,[8],4.8 ratio
same,Geo Mean Ratio (relative to isotype),[9],14.1 ratio

# From patent publication US20130244255A1 (published 2013)
